Source: patent publication US20240025996A1 (FRED HUTCHINSON CANCER CENTER, published 2024)
Blank lines part the entries; values can stand above or below the binder they belong to.

Biological target: T1, soluble ROR1 ectodomain (UniProt Q01973 30-406)
T1 construct: extracellular domain; also called ROR1-A647
Assay: method not stated in the legend (FIGS. 1A-1C)

T1 sequence (Q01973 30-406 limits assumed): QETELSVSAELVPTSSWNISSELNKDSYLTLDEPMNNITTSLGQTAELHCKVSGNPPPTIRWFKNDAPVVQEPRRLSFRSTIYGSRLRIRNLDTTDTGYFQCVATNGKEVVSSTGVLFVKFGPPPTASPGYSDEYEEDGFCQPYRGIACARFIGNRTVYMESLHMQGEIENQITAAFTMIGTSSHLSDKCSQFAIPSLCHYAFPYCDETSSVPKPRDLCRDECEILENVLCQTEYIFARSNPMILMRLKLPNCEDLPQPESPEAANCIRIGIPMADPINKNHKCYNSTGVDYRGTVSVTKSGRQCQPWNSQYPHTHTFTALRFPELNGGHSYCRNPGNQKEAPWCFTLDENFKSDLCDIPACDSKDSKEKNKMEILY

Kd: 2 nM
B1: Nb14 WT (VHH)
VHH: QVKLVQSGGGLVQTGGSLRLSCAASEITFDMYSMGWYREAPGKARDAVASITNRGNTYYADSVKGRFTISRDNAKKTMYLQMNSLKPEDTAVYYCNVYRTGFSDYWGQGTQVTVSS
notes: also called free Nb14

Kd: 2 nM
B2: Nb11 WT (VHH)
VHH: QVKLVQSGGGLVQAGGSLRLSCAASGSIFSSASMGWYRQAPGKPREQVASITRDGNTYYEDDVKGRFTISRDNARSTGYLQMNSLTPEDTGVYYCNVYQLGFYDKWGQGTQVIVSS
notes: also called free Nb11
